Measurements: patent US20220378893A1 (INDUSTRY UNIVERSITY COOPERATION FOUNDATION HANYANG …, published 2022)

B2: neutrophil cytosol factor 1 (p47phox), endogenous in THP-1 cells (other)
chain: MGDTFIRHIALLGFEKRFVPSQHYVYMFLVKWQDLSEKVVYRRFTEIYEFHKTLKEMFPIEAGAINPENRIIPHLPAPKWFDGQRAAENRQGTLTEYCSTLMSLPTKISRCPHLLDFFKVRPDDLKLPTDNQTKKPETYLMPKDGKSTATDITGPIILQTYRAIANYEKTSGSEMALSTGDVVEVVEKSESGWWFCQMKAKRGWIPASFLEPLDSPDETEDPEPNYAGEPYVAIKAYTAVEGDEVSLLEGEAVEVIHKLLDGWWVIRKDDVTGYFPSMYLQKSGQDVSQAQRQIKRGAPPRRSSIRNAHSIHQRSRKRLSQDAYRRNSVRFLQQRRRQARPGPQSPGSPLEEERQTQRSKPQPAVPPRPSADLILNRCSESTKRKLASAV
notes: Human by the cell line; also called p47phox, 45K

Tests used:
[1] = target: unlabeled p47phox (in vitro titration); test: fluorescence titration of BODIPY FL-labeled MPT63 with unlabeled p47phox, curve fitting, 25 C
[2] = target: unlabeled TBK1 (in vitro titration); test: fluorescence titration of BODIPY FL-labeled MPT63 with unlabeled TBK1, curve fitting, 25 C
Chain of unlabeled TBK1 (in vitro titration) (Q9UHD2 whole entry): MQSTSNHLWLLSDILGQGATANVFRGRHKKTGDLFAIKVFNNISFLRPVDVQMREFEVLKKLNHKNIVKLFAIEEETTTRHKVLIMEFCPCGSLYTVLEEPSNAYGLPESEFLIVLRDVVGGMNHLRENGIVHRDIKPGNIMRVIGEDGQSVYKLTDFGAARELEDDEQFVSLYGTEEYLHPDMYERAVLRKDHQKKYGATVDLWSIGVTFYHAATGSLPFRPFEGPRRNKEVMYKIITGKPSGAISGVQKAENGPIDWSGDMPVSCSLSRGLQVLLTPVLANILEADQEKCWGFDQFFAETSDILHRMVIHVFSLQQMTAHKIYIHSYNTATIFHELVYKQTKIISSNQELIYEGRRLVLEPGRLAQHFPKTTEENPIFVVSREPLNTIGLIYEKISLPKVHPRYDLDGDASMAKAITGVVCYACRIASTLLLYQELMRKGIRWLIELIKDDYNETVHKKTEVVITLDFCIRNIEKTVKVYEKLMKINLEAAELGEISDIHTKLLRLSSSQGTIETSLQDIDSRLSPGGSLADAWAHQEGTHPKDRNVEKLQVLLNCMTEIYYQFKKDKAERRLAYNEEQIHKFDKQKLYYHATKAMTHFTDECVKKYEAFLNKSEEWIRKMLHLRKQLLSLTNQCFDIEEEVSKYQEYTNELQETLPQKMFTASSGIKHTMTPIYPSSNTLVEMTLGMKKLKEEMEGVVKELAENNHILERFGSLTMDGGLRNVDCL

[3] = target: unlabeled HK2 (in vitro titration); test: fluorescence titration of BODIPY FL-labeled MPT64 with unlabeled HK2, curve fitting, 25 C
[4] = target: unlabeled TBK1 (in vitro titration); test: fluorescence titration of BODIPY FL-labeled MPT64 with unlabeled TBK1, curve fitting, 25 C
[5] = target: B2; test: co-IP in THP-1 cells treated with p47 peptide
[6] = target: T1, p67phox, endogenous in THP-1 cells (human, UniProt P19878 1-526); test: co-IP in THP-1 cells treated with p47 peptide
T1 sequence: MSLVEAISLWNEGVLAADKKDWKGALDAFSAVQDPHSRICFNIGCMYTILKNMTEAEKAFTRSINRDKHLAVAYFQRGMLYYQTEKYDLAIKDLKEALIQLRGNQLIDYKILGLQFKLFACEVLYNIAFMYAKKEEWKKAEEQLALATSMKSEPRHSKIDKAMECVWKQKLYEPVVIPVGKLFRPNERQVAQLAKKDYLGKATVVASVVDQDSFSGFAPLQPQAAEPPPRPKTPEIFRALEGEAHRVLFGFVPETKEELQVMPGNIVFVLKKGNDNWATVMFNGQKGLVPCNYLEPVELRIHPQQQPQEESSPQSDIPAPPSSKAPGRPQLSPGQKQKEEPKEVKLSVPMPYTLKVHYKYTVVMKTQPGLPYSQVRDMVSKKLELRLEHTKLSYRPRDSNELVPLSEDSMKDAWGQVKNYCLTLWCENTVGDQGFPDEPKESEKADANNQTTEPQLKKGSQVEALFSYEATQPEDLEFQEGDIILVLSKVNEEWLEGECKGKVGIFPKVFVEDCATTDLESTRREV

Molecule: recombinant MPT63 (rMPT63) (from UniProt P9WIP1 30-159)
- Kd [1]: 345 nM
- Kd [2]: 178 nM

Molecule: recombinant MPT64 (rMPT64) (from UniProt P9WIN9 24-228)
- Kd [3]: 134 nM
- Kd [4]: 193 nM

B1: p22phox, endogenous in THP-1 cells (other)
chain: GQIEWAMWANEQALASGLILITGGIVATAGRFTQWYFGAYSIVAGVFVCLLEYPRGKRKKGSTMERWGQKYMTAVVKLFGPFTRNYYVRAVLHLLLSVPAGFLLATILGTACLAIASGIYLLAAVRGEQWTPIEPKPRERPQIGGTIKQPPSNPPPRPPAEARKKPSEEEAAVAAGGPPGGPQVNPIPVTDEVV
- binding result [5]: binds

Molecule: B2
- binding result [6]: binds
